Tests used:
[1] = molecular target: T1, Nucleolin construct R1234G (aa 285–710) (human, UniProt P19338 285-710); experiment: flow cytometry on cells
[2] = molecular target: T1, Nucleolin construct R1234G (aa 285–710); experiment: co-IP

T1 sequence (P19338 285-710, stated change not applied): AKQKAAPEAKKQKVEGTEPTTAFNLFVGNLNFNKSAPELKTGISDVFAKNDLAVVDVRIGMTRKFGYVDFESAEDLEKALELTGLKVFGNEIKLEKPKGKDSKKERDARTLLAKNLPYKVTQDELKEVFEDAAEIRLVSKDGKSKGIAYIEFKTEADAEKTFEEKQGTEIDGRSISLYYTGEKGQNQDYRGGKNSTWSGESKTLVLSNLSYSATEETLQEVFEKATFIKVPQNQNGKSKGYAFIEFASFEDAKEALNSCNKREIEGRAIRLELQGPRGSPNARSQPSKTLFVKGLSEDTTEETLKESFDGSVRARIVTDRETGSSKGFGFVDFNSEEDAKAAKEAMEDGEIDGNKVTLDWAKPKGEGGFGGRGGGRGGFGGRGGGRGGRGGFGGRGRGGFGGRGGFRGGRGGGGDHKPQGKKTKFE

Row | binding result [1] | binding result [2] | Binder
1 | binds | – | GFP-C1QTNF4 (aa 17–329) (ligand) not shown
2 | – | binds | C1QTNF4 (aa 17–329, full-length) (ligand) not shown
